# In article PMC6555533:
# System: MBP-p33C (C-terminal soluble portion of p33 replication protein) (Tomato bushy stunt virus)
# Assay: biotin-RNA pull-down, anti-p33 immunoblot
# Details: EMSA: 10 mM HEPES pH 7.4, 50 mM NaCl, 1 mM DTT, 1 mM EDTA, 5% glycerol, 2.5 mM MgCl2, 0.1 ug tRNA, 2 U RNase inhibitor, 10 ul, 0.1 pmol RNA (EMSA temperature …)
substance,measurement,value
RII(+),binding signal (% of MBP control),50
